Data from US20220162330A1 (CELGENE, published 2022).
Blank lines part the entries; values can stand above or below the binder they belong to.

Experiments:
[1] = target: T1, human CD47 expressed on the cell surface (human, UniProt Q08722 19-323); assay: blocking of human SIRPα binding to OCI-Ly3 cells; competitor SIRPα (FIG. 21)
T1 construct: whole, on cells; also called cell surface CD47; CD47 on Raji, OCI-Ly3, Fadu cells, human RBCs, platelets and blood cells

[2] = target: T1, human CD47 expressed on the cell surface; assay: blocking of human SIRPα binding to Raji cells; competitor SIRPα at a saturating concentration, secondary antibody detection; Raji cells (CD47+/CD20+ Burkitt's lymphoma line); blocking of human SIRPα binding
[3] = target: T1, human CD47 expressed on the cell surface; assay: cell-based or functional assay
human CD20 on cells = target: T2, human CD20 on cells (human, UniProt P11836 1-297); assay: binding to Raji cells (CD20+/CD47+), MFI on the sheet (the legend paragraph 49 says SPR); the signal is not resolved between the CD20 and CD47 arms
T2 construct: whole, on cells; The CD20+ cells in these assays also carry CD47; also called CD20 on B cells and Raji cells
T2 sequence (looked up): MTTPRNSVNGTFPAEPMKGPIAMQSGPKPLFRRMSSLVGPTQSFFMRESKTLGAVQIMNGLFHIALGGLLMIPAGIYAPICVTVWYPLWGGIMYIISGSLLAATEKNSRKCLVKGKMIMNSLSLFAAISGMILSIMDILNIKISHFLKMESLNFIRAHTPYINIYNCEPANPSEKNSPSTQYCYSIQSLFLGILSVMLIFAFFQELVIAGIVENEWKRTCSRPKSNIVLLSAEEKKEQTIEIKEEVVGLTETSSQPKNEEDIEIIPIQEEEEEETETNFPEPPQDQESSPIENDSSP

[4] = target: T1, human CD47 expressed on the cell surface; assay: blocking of human SIRPα binding to OCI-Ly3 cells; competitor SIRPα at a saturating concentration, secondary antibody detection; OCI-Ly3 cells (CD20+ DLBCL line); blocking of human SIRPα binding
cynomolgus CD47 ECD = target: T3, cynomolgus CD47 ECD (cynomolgus, UniProt A0A2K5X523 19-139); assay: SPR
T3 construct: extracellular domain

mouse CD47 = target: T4, mouse CD47 (mouse, UniProt Q61735 19-140, limits assumed); assay: SPR
T4 sequence (looked up): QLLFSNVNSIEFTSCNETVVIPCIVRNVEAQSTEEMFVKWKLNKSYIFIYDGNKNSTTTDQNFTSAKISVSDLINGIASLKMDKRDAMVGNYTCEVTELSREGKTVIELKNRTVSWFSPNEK

human CD47 ECD [5] = target: T5, human CD47 ECD (human, UniProt Q08722 19-139); assay: SPR
T5 construct: extracellular domain; also called human CD47 extracellular domain

[6] = target: T1, human CD47 expressed on the cell surface; assay: cell-based or functional assay; remark: listed apart in the source
human CD47 ECD [7] = target: T5, human CD47 ECD; assay: column 'Human CD47 KD (µM)'; the sheet names no assay (SPR per paragraph 7 and paragraph 162)

B1: TPP-23 (408_437 with IgG1) (antibody, V domains shown)
VH: QMQLVQSGAEVKKPGSSVKVSCKASGFNIKDYYLHWVRQAPGKGLEWMGWIDPDQGDTEYAQKFQGRVTITRDRSTSTAYMELRSLRAEDTAVYYCNAAYGSSSYPMDYWGQGTLVTVSS
VL: NIQMTQSPSSLSASVGDRVTITCRASQDIHRYLSWFQQKPGKVPKHLIYRANRLVSGVPSRFSGSGSGTEFTLTISSLQPEDFATYYCLQYDEFPYTFGGGTKVEIK
notes: Monospecific IgG1 with the 408_437 Fab; also called parental CD47 mAb
IC50 [1]: 0.11 nM

B2: TPP-1360 (bispecific antibody, human IgG1, kappa)
light 1: NIQMTQSPSSLSASVGDRVTITCRASQDIHRYLSWFQQKPGKVPKHLIYRESRFVDGVPSRFSGSGSGTEFTLTISSLQPEDFATYYCLQYDEFPYTFGGGTKVEIKRTVAAPSVFIFPPSDEELKSGTASVVCWLNNFYPREAKVQWKVDNALQSGNSEESVTEQDSKDSTYSLSSTLELSKADYEKHKVYACEVTHQGLSSPVTKSFNRGEC
heavy 1: QMQLVQSGAEVKKPGSSVKVSCKASGFNIKDYYLHWVRQAPGKGLEWMGWIDPDQGDTYYAQKFQGRVTITRDRSTSTAYMELRSLRAEDTAVYYCNAAYGESSYPMDYWGQGTLVTVSSASTKGPSVFPLAPSSKSTSGGTAALGCLVKDYFPEPVTVSWNSGALTSGVHTFPAVLKSSGLYSLSSVVTVPSSSLGTQTYICNVNHKPSNTKVDKKVEPKSCDKTHTCPPCPAPELLGGPSVFLFPPKPKDTLMISRTPEVTCVVVDVSHEDPEVKFNWYVDGVEVHNAKTKPREEQYNSTYRVVSVLTVLHQDWLNGKEYKCKVSNKALPAPIEKTISKAKGQPREPQVYVLPPSREEMTKNQVSLLCLVKGFYPSDIAVEWESNGQPENNYLTWPPVLDSDGSFFLYSKLTVDKSRWQQGNVFSCSVMHEALHNHYTQKSLSLSPGK
light 2: QIVLSQSPAILSASPGEKVTMTCRASSSVSYIHWFQQKPGSSPKPWIYATSNLASGVPVRFSGSGSGTSYSLTISRVEAEDAATYYCQQWTSNPPTFGGGTKLEIKRTVAAPSVAIFPPSDERLKSGTASVVCVLNNFYPREAKVQWKVDNALQSGNSQESVTEQDSKDSTYSLSSRLTLSKADYEKHKVYACEVTHQGLSSPVTKSFNRGEC
heavy 2: QVQLQQPGAELVKPGASVKMSCKASGYTFTSYNMHWVKQTPGRGLEWIGAIYPGNGDTSYNQKFKGKATLTADKSSSTAYMQLSSLTSEDSAVYYCARSTYYGGDWYFNVWGAGTTVTVSAASTKGPSVFPLAPSSKSTSGGTAWLGCEVTDYFPEPVTVSWNSGALTSGVHTFPAVLESSGLYSLSSVVTVPSSSLGTQTYICNVNHKPSNTKVDKKVEPKSCDKTHTCPPCPAPELLGGPSVFLFPPKPKDTLMISRTPEVTCVVVDVSHEDPEVKFNWYVDGVEVHNAKTKPREEQYNSTYRVVSVLTVLHQDWLNGKEYKCKVSNKALPAPIEKTISKAKGQPREPQVYVYPPSREEMTKNQVSLTCLVKGFYPSDIAVEWESNGQPENNYKTTPPVLDSDGSFALVSKLTVDKSRWQQGNVFSCSVMHEALHNHYTQKSLSLSPGK
notes: IgG1 1+1 heterodimer: one detuned anti-CD47 arm and one rituximab-derived anti-CD20 arm; also called CD47×CD20 bispecific; CD47×CD20 IgG1
EC50 [2]: 1.64 nM
IC50 of activation of macrophage phagocytosis, OCI-Ly3 cell line [3]: 1.4 nM
IC50 of activation of macrophage phagocytosis, Raji cell line [3]: 1.8 nM
binding result (human CD20 on cells): binds
EC50 [4]: 1.3 nM
Kd (cynomolgus CD47 ECD): 4510 nM
binding result (mouse CD47): no binding
Kd (human CD47 ECD [5]): 1700 nM
fold decrease in affinity relative to the parental anti-CD47 binder (human CD47 ECD [5]): ~350 fold

Next, values leading:

EC50 of macrophage phagocytosis of OCI-Ly3 cells (column 'OCI-Ly3 Mφ EC50 (µg/mL)') [6]: 0.5 µg/mL
EC50 of macrophage phagocytosis of OCI-Ly3 cells, repeat (column 'OCI-Ly3 Mφ EC50 (µg/mL) Repeat') [6]: 0.45 µg/mL
Kd (human CD47 ECD [7]): 2530 nM
B3: TPP-1361 (bispecific antibody, human IgG1, kappa)
light 1: NIQMTQSPSSLSASVGDRVTITCQASQDIHRYLSWFQQDPGTVPQHLIYRESRFVDGVPSRFSGSGSGTEFTLTISSLQPEDFATYYCLQYDEFPYTFGGGTKVEIKRTVAAPSVFIFPPSDEELKSGTASVVCWLNNFYPREAKVQWKVDNALQSGNSEESVTEQDSKDSTYSLSSTLELSKADYEKHKVYACEVTHQGLSSPVTKSFNRGEC
heavy 1: QMQLVQSGAEVKKPGSSVKVSCKASGFNIKDYYLHWVRQAPGQGLEWMGWIDPDQGDTYYAQKFQGRVTITRDRSTSTAYMELASLTAEDTAVYYCNAAYGESSYPMDYWGQGTLVTVSSASTKGPSVFPLAPSSKSTSGGTAALGCLVKDYFPEPVTVSWNSGALTSGVHTFPAVLKSSGLYSLSSVVTVPSSSLGTQTYICNVNHKPSNTKVDKKVEPKSCDKTHTCPPCPAPELLGGPSVFLFPPKPKDTLMISRTPEVTCVVVDVSHEDPEVKFNWYVDGVEVHNAKTKPREEQYNSTYRVVSVLTVLHQDWLNGKEYKCKVSNKALPAPIEKTISKAKGQPREPQVYVLPPSREEMTKNQVSLLCLVKGFYPSDIAVEWESNGQPENNYLTWPPVLDSDGSFFLYSKLTVDKSRWQQGNVFSCSVMHEALHNHYTQKSLSLSPGK
light 2: QIVLSQSPAILSASPGEKVTMTCRASSSVSYIHWFQQKPGSSPKPWIYATSNLASGVPVRFSGSGSGTSYSLTISRVEAEDAATYYCQQWTSNPPTFGGGTKLEIKRTVAAPSVAIFPPSDERLKSGTASVVCVLNNFYPREAKVQWKVDNALQSGNSQESVTEQDSKDSTYSLSSRLTLSKADYEKHKVYACEVTHQGLSSPVTKSFNRGEC
heavy 2: QVQLQQPGAELVKPGASVKMSCKASGYTFTSYNMHWVKQTPGRGLEWIGAIYPGNGDTSYNQKFKGKATLTADKSSSTAYMQLSSLTSEDSAVYYCARSTYYGGDWYFNVWGAGTTVTVSAASTKGPSVFPLAPSSKSTSGGTAWLGCEVTDYFPEPVTVSWNSGALTSGVHTFPAVLESSGLYSLSSVVTVPSSSLGTQTYICNVNHKPSNTKVDKKVEPKSCDKTHTCPPCPAPELLGGPSVFLFPPKPKDTLMISRTPEVTCVVVDVSHEDPEVKFNWYVDGVEVHNAKTKPREEQYNSTYRVVSVLTVLHQDWLNGKEYKCKVSNKALPAPIEKTISKAKGQPREPQVYVYPPSREEMTKNQVSLTCLVKGFYPSDIAVEWESNGQPENNYKTTPPVLDSDGSFALVSKLTVDKSRWQQGNVFSCSVMHEALHNHYTQKSLSLSPGK
notes: IgG1 1+1 heterodimer; also called CD47×CD20 bispecific

EC50 of macrophage phagocytosis of OCI-Ly3 cells (column 'OCI-Ly3 Mφ EC50 (µg/mL)') [6]: 0.064 µg/mL
EC50 of macrophage phagocytosis of OCI-Ly3 cells, repeat (column 'OCI-Ly3 Mφ EC50 (µg/mL) Repeat') [6]: 0.046 µg/mL
Kd (human CD47 ECD [7]): 430 nM
B4: TPP-1367 (bispecific antibody, human IgG1, kappa)
anti-CD47 light chain: NIQMTQSPSSLSASVGDRVTITCRASQDIHRYLSWFQQKPGKVPKHLIYRANRLVSGVPSRFSGSGSGTEFTLTISSLQPEDFATYYCLQYDEFPYTFGGGTKVEIKRTVAAPSVFIFPPSDEELKSGTASVVCWLNNFYPREAKVQWKVDNALQSGNSEESVTEQDSKDSTYSLSSTLELSKADYEKHKVYACEVTHQGLSSPVTKSFNRGEC
anti-CD47 heavy chain: QMQLVQSGAEVKKPGSSVKVSCKASGFNIKDYYLHWVRQAPGKGLEWMGWIDPDQGDTYYAQKFQGRVTITRDRSTSTAYMELRSLRAEDTAVYYCNAAYGESSYPMDYWGQGTLVTVSSASTKGPSVFPLAPSSKSTSGGTAALGCLVKDYFPEPVTVSWNSGALTSGVHTFPAVLKSSGLYSLSSVVTVPSSSLGTQTYICNVNHKPSNTKVDKKVEPKSCDKTHTCPPCPAPELLGGPSVFLFPPKPKDTLMISRTPEVTCVVVDVSHEDPEVKFNWYVDGVEVHNAKTKPREEQYNSTYRVVSVLTVLHQDWLNGKEYKCKVSNKALPAPIEKTISKAKGQPREPQVYVLPPSREEMTKNQVSLLCLVKGFYPSDIAVEWESNGQPENNYLTWPPVLDSDGSFFLYSKLTVDKSRWQQGNVFSCSVMHEALHNHYTQKSLSLSPGK
anti-CD20 light chain: QIVLSQSPAILSASPGEKVTMTCRASSSVSYIHWFQQKPGSSPKPWIYATSNLASGVPVRFSGSGSGTSYSLTISRVEAEDAATYYCQQWTSNPPTFGGGTKLEIKRTVAAPSVAIFPPSDERLKSGTASVVCVLNNFYPREAKVQWKVDNALQSGNSQESVTEQDSKDSTYSLSSRLTLSKADYEKHKVYACEVTHQGLSSPVTKSFNRGEC
anti-CD20 heavy chain: QVQLQQPGAELVKPGASVKMSCKASGYTFTSYNMHWVKQTPGRGLEWIGAIYPGNGDTSYNQKFKGKATLTADKSSSTAYMQLSSLTSEDSAVYYCARSTYYGGDWYFNVWGAGTTVTVSAASTKGPSVFPLAPSSKSTSGGTAWLGCEVTDYFPEPVTVSWNSGALTSGVHTFPAVLESSGLYSLSSVVTVPSSSLGTQTYICNVNHKPSNTKVDKKVEPKSCDKTHTCPPCPAPELLGGPSVFLFPPKPKDTLMISRTPEVTCVVVDVSHEDPEVKFNWYVDGVEVHNAKTKPREEQYNSTYRVVSVLTVLHQDWLNGKEYKCKVSNKALPAPIEKTISKAKGQPREPQVYVYPPSREEMTKNQVSLTCLVKGFYPSDIAVEWESNGQPENNYKTTPPVLDSDGSFALVSKLTVDKSRWQQGNVFSCSVMHEALHNHYTQKSLSLSPGK
notes: IgG1 1+1 heterodimer; also called CD47/CD20 TPP1367; CD47×CD20 bispecific
